According to doi:10.1101/2021.01.21.427698:

Target: T1, human SEPT2 with a TEV-cleavable N-terminal His6-tag (human), Q15019
T1 chain: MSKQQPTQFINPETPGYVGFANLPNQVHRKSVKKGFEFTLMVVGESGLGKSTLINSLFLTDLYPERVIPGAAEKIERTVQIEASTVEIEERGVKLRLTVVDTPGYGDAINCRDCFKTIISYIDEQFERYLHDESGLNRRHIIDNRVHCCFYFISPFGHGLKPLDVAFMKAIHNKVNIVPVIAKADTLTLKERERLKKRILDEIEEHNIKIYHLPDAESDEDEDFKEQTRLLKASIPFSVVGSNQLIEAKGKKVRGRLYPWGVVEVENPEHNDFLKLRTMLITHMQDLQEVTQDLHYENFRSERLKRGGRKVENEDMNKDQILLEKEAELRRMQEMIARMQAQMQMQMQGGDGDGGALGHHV
Conditions: remark: other sources report otherwise

B1: full-length human SEPT7 (untagged, as in the octamers), Q16181 1-437 (natural protein)
chain: MSVSARSAAAEERSVNSSTMVAQQKNLEGYVGFANLPNQVYRKSVKRGFEFTLMVVGESGLGKSTLINSLFLTDLYSPEYPGPSHRIKKTVQVEQSKVLIKEGGVQLLLTIVDTPGFGDAVDNSNCWQPVIDYIDSKFEDYLNAESRVNRRQMPDNRVQCCLYFIAPSGHGLKPLDIEFMKRLHEKVNIIPLIAKADTLTPEECQQFKKQIMKEIQEHKIKIYEFPETDDEEENKLVKKIKDRLPLAVVGSNTIIEVNGKRVRGRQYPWGVAEVENGEHCDFTILRNMLIRTHMQDLKDVTNNVHYENYRSRKLAAVTYNGVDNNKNKGQLTKSPLAQMEEERREHVAKMKKMEMEMEQVFEMKVKEKVQKLKDSEAELQRRHEQMKKNLEAQHKELEEKRRQFEDEKANWEAQQRILEQQNSSRTLEKNKKKGKIF
  stoichiometry N: 1
